Results from patent US20210388043A1 (IMMUNEONCO BIOPHARMACEUTICALS SHANGHAI, published 2021).

B1: CD32b (FcγRIIb) (receptor, UniProt P31994 46-217, looked up)
chain: APPKAVLKLEPQWINVLQEDSVTLTCRGTHSPESDSIQWFHNGNLIPTHTQPSYRFKANNNDSGEYTCQTGQTSLSDPVHLTVLSEWLVLQTPHLEFQEGETIVLRCHSWKDKPLVKVTFFQNGKSKKFSRSDPNFSIPQANHSHSGDYHCTGNIGYTLYSSKPVTITVQAP
notes: Bought recombinant protein coated on an ELISA plate
B2: CD64 (FcγRI) (receptor, UniProt P12314 16-288, looked up)
chain: QVDTTKAVITLQPPWVSVFQEETVTLHCEVLHLPGSSSTQWFLNGTATQTSTPSYRITSASVNDSGEYRCQRGLSGRSDPIQLEIHRGWLLLQVSSRVFTEGEPLALRCHAWKDKLVYNVLYYRNGKAFKFFHWNSNLTILKTNISHNGTYHCSGMGKHRYTSAGISVTVKELFPAPVLNASVTSPLLEGNLVTLSCETKLLLQRPGLQLYFSFYMGSKTLRGRNTSSEYQILTARREDSGLYWCEAATEDGNVLKRSPELELQVLGLQLPTP
notes: as for B1

Target: T1, HY03M (human)
T1 construct: Homodimer; also called SIRPαD1-Fc (N89A)
Experiment: ELISA on coated FcγR; HY03M is the reference against which HY03MM was decreased (FIG. 9A)
Description: The binding activities of proteins of the present invention to FcγRs were tested by ELISA as follows.
The plate was left in a refrigerator at 4° C. overnight. Immediately before the test, the plate was washed by 0.05% PBS-T and then blocked by 3% skim milk for 1 hour at room temperature. […] After incubated at room temperature for 1 hour, the liquids in the plate were discarded. […] The plate was incubated at room temperature for 1 hour and then washed by the washing solutions for 5 times. Thereafter, HRP substrates were added to the plate, and the plate was left for colorimetric reaction for 10 to 20 minutes in the dark. The colorimetric reaction was terminated later using 1 N H₂SO₄, and the OD450 value was obtained in a plate reader.

T1 sequence (chain, as listed by the source limits assumed): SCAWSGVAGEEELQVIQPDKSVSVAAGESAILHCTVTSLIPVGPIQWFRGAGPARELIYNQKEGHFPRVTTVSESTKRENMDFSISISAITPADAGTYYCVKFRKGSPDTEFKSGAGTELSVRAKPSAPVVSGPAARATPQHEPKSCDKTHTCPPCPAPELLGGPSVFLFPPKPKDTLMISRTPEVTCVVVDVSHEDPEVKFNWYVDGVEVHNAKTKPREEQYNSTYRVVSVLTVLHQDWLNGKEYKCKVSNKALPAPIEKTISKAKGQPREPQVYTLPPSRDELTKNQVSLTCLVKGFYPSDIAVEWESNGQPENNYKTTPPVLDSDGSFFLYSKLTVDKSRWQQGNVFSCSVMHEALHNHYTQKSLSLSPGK

| Binder | binding result |
| --- | --- |
| B1 | binds |
| B2 | binds |
